Like-named read-outs stand apart in the source and are kept apart here.
What was measured:
human IL-17A [1] = target: T1, human IL-17A (human, UniProt Q16552 24-155); test: hIL17A ELISA
T1 construct: Recombinant; biotinylated in the ELISA; also called hIL-17; hIL17A
Protocol: The following protocol is used to characterize the binding of IL-17 antibodies to human IL-17 by enzyme-linked immunosorbent assay (ELISA). […] Coat ELISA plate with 50 μl per well of Goat anti Mouse IgG-Fc at 2 ug/ml, overnight at 4° C. […] Wash plate 3×PBS/Tween. […] Add 50 μl Mab diluted to 1 μg/ml in PBS/0.1% BSA to appropriate wells. Incubate 1 hr at room temperature (RT). […] Wash plate 3× with PBS/Tween. […] Add 50 μl of serial diluted biotin-IL17 (human IL-17, IL-17A/F, cyno IL-17) to appropriate wells. Incubate 1 hr at room temperature (RT). […] Wash plate 3× with PBS/Tween. […] Incubate 1 hr at RT. […] Wash plate 3× with PBS/Tween. […] Stop reaction with 50 μl 2N H₂SO₄. […] Read absorbance at 450 nm.

human IL-17A [2] = target: T1, human IL-17A; test: cell-based or functional assay
cynomolgus monkey IL-17A [3] = target: T2, cynomolgus monkey IL-17A (cynomolgus monkey, UniProt A0A2K5TTB0 24-155); test: cell-based or functional assay
human IL-17A [4] = target: T1, human IL-17A; test: SPR (Biacore 3000), antibody captured by anti-Fc, antigen in solution;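 note: purified recombinant IL-17 antigens flowed over captured antibodies in HBS-EP buffer, global Langmuir one-to-one fit of association and dissociation phases, KD derived from koff over kon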
Protocol: (§1) The binding of antibodies to purified recombinant human, cyno, rat, mouse, rabbit IL-17 and human IL-17A/F were determined by surface plasmon resonance-based measurements with a Biacore® 3000 instrument (Biacore® AB, Uppsala, Sweden) using running HBS-EP (10 mM HEPES [pH 7.4], 150 mM NaCl, 3 mM EDTA, and 0.005% surfactant P20) at 25° C. […] Approximately 5000 RU of goat anti-mouse or anti-human IgG (Fcγ) fragment specific polyclonal antibody (Pierce Biotechnology Inc, Rockford, Ill.) diluted in 10 mM sodium acetate (pH 4.5) was directly immobilized across a CM5 research grade biosensor chip using a standard amine coupling kit according to manufacturer's instructions and procedures at 25 μg/ml. Unreacted moieties on the biosensor surface were blocked with ethanolamine. Modified carboxymethyl dextran surface in flowcell 2 and 4 was used as a reaction surface. Unmodified carboxymethyl dextran without goat anti-mouse or anti-human IgG in flow cell 1 and 3 was used as the reference surface. For kinetic analysis, rate equations derived from the 1:1 Langmuir binding model were fitted simultaneously to association and dissociation phases of all eight injections (using global fit analysis) with the use of Biaevaluation 4.0.1 software. Purified antibodies were diluted in HEPES-buffered saline for capture across goat anti-mouse or anti-human IgG specific reaction surfaces. Antibodies to be captured as a ligand (25 μg/ml) were injected over reaction matrices at a flow rate of 5 μl/min. The association and dissociation rate constants, kon (unit M-1s-1) and koff (unit s-1) were determined under a continuous flow rate of 25 μl/min. Rate constants were derived by making kinetic binding measurements at ten different antigen concentrations ranging from 10 nM to 200 nM. The equilibrium dissociation constant (unit M) of the reaction between antibodies and recombinant purified IL-17 antigens was then calculated from the kinetic rate constants by the following formula: KD=koff/kon. Binding was recorded as a function of time and kinetic rate constants are calculated. In this assay, on-rates as fast as 10⁶ M⁻¹ s⁻¹ and off-rates as slow as 10⁻⁶ s⁻¹ can be measured.

human IL-17A/F = target: T3, human IL-17A/F (human, UniProt Q16552 24-155; Q96PD4 31-163); test: as above
T3 construct: Recombinant; biotinylated in the ELISA; also called hIL-17A/F; HuIL-17A/F
Protocol: as §1

cynomolgus monkey IL-17A [5] = target: T2, cynomolgus monkey IL-17A; test: as above
Protocol: as §1

rat IL-17A = target: T4, rat IL-17A (rat, UniProt Q61453 18-150, limits assumed); test: as above
T4 construct: Purified recombinant protein in SPR
T4 sequence (looked up): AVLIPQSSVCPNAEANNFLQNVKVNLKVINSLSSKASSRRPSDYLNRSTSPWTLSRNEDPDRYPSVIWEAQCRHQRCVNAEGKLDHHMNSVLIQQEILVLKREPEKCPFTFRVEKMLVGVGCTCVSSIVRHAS
Protocol: as §1

mouse IL-17A = target: T5, mouse IL-17A (mouse, UniProt Q62386 26-158, limits assumed); test: as above
T5 construct: Purified recombinant protein in SPR; also called MuIL-17A; murine IL-17A
T5 sequence (looked up): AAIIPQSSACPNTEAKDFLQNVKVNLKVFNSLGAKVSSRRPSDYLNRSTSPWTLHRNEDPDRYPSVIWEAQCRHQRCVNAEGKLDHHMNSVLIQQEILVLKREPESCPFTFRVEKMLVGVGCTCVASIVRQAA
Protocol: as §1

human IL-17A [6] = target: T1, human IL-17A; test: cell-based or functional assay; remark: listed apart in the source

T3 sequence (Q16552 24-155, chain 1 of 2): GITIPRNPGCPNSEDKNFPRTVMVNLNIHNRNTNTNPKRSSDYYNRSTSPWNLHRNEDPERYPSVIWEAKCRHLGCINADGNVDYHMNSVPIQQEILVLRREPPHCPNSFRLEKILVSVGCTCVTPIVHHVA
T3 sequence (Q96PD4 31-163, chain 2 of 2): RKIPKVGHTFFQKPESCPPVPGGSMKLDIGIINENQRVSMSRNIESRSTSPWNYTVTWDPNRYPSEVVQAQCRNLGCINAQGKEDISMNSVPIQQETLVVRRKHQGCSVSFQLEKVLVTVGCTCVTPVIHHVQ
T1 sequence (Q16552 24-155): as the sequence (Q16552 24-155, chain 1 of 2) above
T2 sequence (A0A2K5TTB0 entry or part of it): as the sequence (Q16552 24-155, chain 1 of 2) above, with T3A, P8S, N34S, I77V, N78K, P104R counted along it

B1: IL17-h10F7.4 (antibody, V domains shown)
VH: QVQLQQSGAELVRPGTSVTLSCKASGYIFTDYEIHWVKQTPVHGLEWIGVNDPESGGTFYNQKFDGKAELTADKSSSTAYMELRSLTSEDSGVYYCTRYYRYESFYGMDYWGQGTSITVSS
VL: DIQLTQSPSSLSASVGDRVTITCSASSSISYIYWFQQKPGKSPKRWIYATFELASGVPSRFSGSGSGTDYTLTISSLQPEDFATYYCHQRSSYPWTFGQGTKLEIKR
notes: IgG; constant regions not specified
With B1 the EC50 (human IL-17A [1]) was 0.04 nM and the “Potency (pM), IL-17-driven IL-6 production in HS27 cells” value (“Potency (pM)” below) (human IL-17A [2]) was 117 pM.

B2: IL17-h10F7.9 (antibody, V domains shown)
VH: QVQLQQSGAELVRPGTSVTLSCKASGYIFTDYEIHWVKQTPVHGLEWIGVNDPESGGTFYNQKFDGKAELTADKSSSTAYMELRSLTSEDSGVYYCTRYYRYESFYGMDYWGQGTSITVSS
VL: EIVLTQSPDFQSVTPKEKVTITCSASSSISYIYWFQQKPDQSPKRWIYATFELASGVPSRFSGSGSGTDYTLTINSLEAEDAATYYCHQRSSYPWTFGQGTKLEIKR
notes: as for B1
For B2, the EC50 (human IL-17A [1]) was 0.04 nM and the “Potency (pM)” value (human IL-17A [2]) was 293 pM.

B3: m10F7hIgG1 (antibody, V domains shown)
VH: QVQLQQSGAELVRPGTSVTLSCKASGYIFTDYEIHWVKQTPVHGLEWIGVNDPESGGTFYNQKFDGKAELTADKSSSTAYMELRSLTSEDSGVYYCTRYYRYESFYGMDYWGQGTSITVSS
VL: QIVLTQSPAIMSASPGEKVTMTCSASSSISYIYWFQQKPGTSPKRWIYATFELASGVPARFSGSGSGTSYSLTISSMEAEDAATYYCHQRSSYPWTFGGGSKLEIKR
B3 was tested, and the “Potency (pM)” value (human IL-17A [2]) was 40 pM and the “Potency (pM)” value (cynomolgus monkey IL-17A [3]) was 79 pM.

B4: IL17-h10F7.6 (antibody, V domains shown)
VH: EVQLVQSGAEVKKPGSSVKVSCKASGYTFTDYEIHWVRQAPGQGLEWIGVNDPESGGTFYNQKFDGRATLTADKSTSTAYMELSSLRSEDTAVYYCTRYYRYESFYGMDYWGQGTTVTVSS
VL: DIQLTQSPSSLSASVGDRVTITCSASSSISYIYWFQQKPGKSPKRWIYATFELASGVPSRFSGSGSGTDYTLTISSLQPEDFATYYCHQRSSYPWTFGQGTKLEIKR
notes: IgG; constant regions not specified; also called h10F7.6 (VH.1a-Vk.1a)
In the case of B4, the EC50 (human IL-17A [1]) is reported as 0.05 nM, the “Potency (pM)” value (human IL-17A [2]) is reported as 264 pM and the “Potency (pM)” value (cynomolgus monkey IL-17A [3]) is reported as 313 pM. It also gave a Kd (human IL-17A [4]) of 0.302 nM, a koff (human IL-17A [4]) of 0.000185 s⁻¹ and a kon (human IL-17A [4]) of 612000 M⁻¹ s⁻¹. The Kd (human IL-17A/F) was 1.14 nM, the koff (human IL-17A/F) was 0.000696 s⁻¹ and the kon (human IL-17A/F) was 609000 M⁻¹ s⁻¹. It also gave a Kd (cynomolgus monkey IL-17A [5]) of 0.217 nM, a koff (cynomolgus monkey IL-17A [5]) of 0.000154 s⁻¹ and a kon (cynomolgus monkey IL-17A [5]) of 711000 M⁻¹ s⁻¹. It also gave a Kd (rat IL-17A) of 0.919 nM, a koff (rat IL-17A) of 0.000454 s⁻¹ and a kon (rat IL-17A) of 494000 M⁻¹ s⁻¹. For the same binder, the Kd (mouse IL-17A) was 0.98 nM, the koff (mouse IL-17A) was 0.000384 s⁻¹ and the kon (mouse IL-17A) was 392000 M⁻¹ s⁻¹.

B5: IL17-h10F7.15 (antibody, V domains shown)
VH: EVQLVQSGAEVKKPGSSVKVSCKASGYTFTDYEIHWVRQAPGQGLEWIGVNDPESGGTFYNQKFDGRATLTADKSTSTAYMELSSLRSEDTAVYYCTRYYRYESFYGMDYWGQGTTVTVSS
VL: EIVLTQSPSSLSASVGDRVTITCSASSSISYIYWFQQKPGKSPKRWIYATFELASGVPSRFSGSGSGTDYTLTISSLQPEDFATYYCHQRSSYPWTFGQGTKLEIKR
notes: as for B1
With B5 the EC50 (human IL-17A [1]) was 0.14 nM, the “Potency (pM)” value (human IL-17A [2]) was 309 pM and the “Potency (pM)” value (cynomolgus monkey IL-17A [3]) was 499 pM.

B6: IL17-h10F7.13 (antibody, V domains shown)
VH: EVQLVQSGAEVKKPGSSVKVSCKASGYTFTDYEIHWVRQAPGQGLEWIGVNDPESGGTFYNQKFDGRATLTADKSTSTAYMELSSLRSEDTAVYYCTRYYRYESFYGMDYWGQGTTVTVSS
VL: QIVLTQSPSSLSASVGDRVTITCSASSSISYIYWFQQKPGKSPKRWIYATFELASGVPSRFSGSGSGTDYTLTISSLQPEDFATYYCHQRSSYPWTFGQGTKLEIKR
notes: as for B1
With B6 the EC50 (human IL-17A [1]) was 0.1 nM, the “Potency (pM)” value (human IL-17A [2]) was 242 pM and the “Potency (pM)” value (cynomolgus monkey IL-17A [3]) was 429 pM.

B7: ML109-1D8 (antibody, V domains shown)
VH: QVQLQQSGAELVRPGASVKLSCKASGYTFSDYEMHWVKQTPVHGLEWIGVIHPGNGGTAYNQKFRDKATLTADKSSTTAYMELSSLTSEDSAVYYCIRFLTYEGYFDYWGQGTTLTVSS
VL: SIVMTQTPKFLLVSAGDRVTITCKASQSVNNDVAWFQHKPGQSPKLLINYASNRYTGVPDRFTGSGYGTDFTFTISTVQSEDLAIYFCQQDYGSPYTFGGGTTLEIKR
In the case of B7, the “Potency (pM)” value (human IL-17A [6]) is reported as 62 pM.

B8: ML109-5C5 (antibody, V domains shown)
VH: QVQLQQSGAELVRPGASVKLSCKALGYTFTDYEFHWVKQTPVHGLEWIGVIHPGNGGTAYNQNFRDKATLTADKSSSTAYMELSSLTSEDSGVYYCTRFLTYEGYFDYWGQGTALTVSS
VL: NIVMTQTPKFLLVSPGDRVTITCKASQSVSIDVGWFQQKPGQSPKLLIYHASNRYTGVPDRFTGSGYGTDFTFTVNTVQAEDLAVYFCQQDYSSPYTFGGGTKLELKR
B8 was tested, and the “Potency (pM)” value (human IL-17A [6]) was 23 pM.

B9: ML109-7D7 (antibody, V domains shown)
VH: QVQLQQSGAELVRPGTSVTLSCKASGYRFTDYEIHWIKQTPAQVLEWIGVTDPESGGTLHNPKFDGKATLTADKSSRTAYMELRSLTSEDSAVYYCTRYYKYESFYGMDYWGQGTSVTVSS
VL: QIVLTQSPAIMSAFPGEKVTMTCSASSSISYMCWYQQKPGTSPKRWICDTSKLASGVPVRFSGSGSGTSYSLTINSMETEDAATYYCQQRSSYPWTFGGGTKVEIKR
In the case of B9, the “Potency (pM)” value (human IL-17A [6]) is reported as 81 pM.

B10: IL17-h10F7.11 (antibody, V domains shown)
VH: EVQLVQSGAEVKKPGSSVKVSCKASGYTFTDYEIHWVRQAPGQGLEWIGVNDPESGGTFYNQKFDGRATLTADKSTSTAYMELSSLRSEDTAVYYCTRYYRYESFYGMDYWGQGTTVTVSS
VL: EIVLTQSPDFQSVTPKEKVTITCSASSSISYIYWFQQKPDQSPKRWIYATFELASGVPSRFSGSGSGTDYTLTINSLEAEDAATYYCHQRSSYPWTFGQGTKLEIKR
notes: IgG; constant regions not specified; also called h10F7.11 (VH.1a-Vk.2a)
In the case of B10, the EC50 (human IL-17A [1]) is reported as 0.1 nM, the “Potency (pM)” value (human IL-17A [2]) is reported as 326 pM and the “Potency (pM)” value (cynomolgus monkey IL-17A [3]) is reported as 622 pM. For the same binder, the Kd (human IL-17A [4]) was 0.524 nM, the koff (human IL-17A [4]) was 0.000142 s⁻¹ and the kon (human IL-17A [4]) was 271000 M⁻¹ s⁻¹. It also gave a Kd (human IL-17A/F) of 2.11 nM, a koff (human IL-17A/F) of 0.00086 s⁻¹ and a kon (human IL-17A/F) of 408000 M⁻¹ s⁻¹. For the same binder, the Kd (cynomolgus monkey IL-17A [5]) was 0.773 nM, the koff (cynomolgus monkey IL-17A [5]) was 0.000351 s⁻¹ and the kon (cynomolgus monkey IL-17A [5]) was 454000 M⁻¹ s⁻¹. For the same binder, the Kd (rat IL-17A) was 3.77 nM, the koff (rat IL-17A) was 0.000667 s⁻¹ and the kon (rat IL-17A) was 177000 M⁻¹ s⁻¹. The Kd (mouse IL-17A) was 2.21 nM, the koff (mouse IL-17A) was 0.000522 s⁻¹ and the kon (mouse IL-17A) was 236000 M⁻¹ s⁻¹.

B11: IL17-h10F7.17 (antibody, V domains shown)
VH: EVQLVQSGAEVKKPGSSVKVSCKASGYTFTDYEIHWVRQAPGQGLEWIGVNDPESGGTFYNQKFDGRATLTADKSTSTAYMELSSLRSEDTAVYYCTRYYRYESFYGMDYWGQGTTVTVSS
VL: QIVLTQSPDFQSVTPKEKVTITCSASSSISYIYWFQQKPDQSPKRWIYATFELASGVPSRFSGSGSGTDYTLTINSLEAEDAATYYCHQRSSYPWTFGQGTKLEIKR
notes: as for B1
For B11, the EC50 (human IL-17A [1]) was 0.1 nM, the “Potency (pM)” value (human IL-17A [2]) was 510 pM and the “Potency (pM)” value (cynomolgus monkey IL-17A [3]) was 293 pM.

B12: ML109-10G9 (antibody, V domains shown)
VH: QVQLKESGPALVAPSQSLSFTCTISGFSLSSYGVHWVRQPPGKGLEWLVVIWSDGTTTYNSALKSRLSISKDNSKSQVFLKMNSLQTDDTAMYYCARDGYYIYTMDYWGQGTSVTVSS
VL: DVVMTQTPLSLPVSLGDQASISCRSSQSLVHSNGNTYLHWYLQRPGQSPKLLIYKVSNRFSGVPDRFSGSGSGTDFTLKISRVEAEDLGLYFCSQGTHAPLTFGAGTKLELNR
In the case of B12, the “Potency (pM)” value (human IL-17A [6]) is reported as 131 pM.

B13: ML109-8B12 (antibody, V domains shown)
VH: QVQLKESGPGLVAPSQSLSITCTISGFSLTSYGVHWVRQPPGKGLEWLVVIWSDGTTTYNSALKSRLSITRDNSKSQVFLKMNSLQTDDTAIYYCARDSTWDYYYTMDYWGQGTPVTVSS
VL: DVVMTQTPLSLPVSLGDQASISCRSSQSLVHSNGNTYLHWYLQKPGQSPKLLIYKVSNRFSGVPDRFSGSGSGTDFTLKISRVEAEDLGVYFCSQSTHVYTFGGGTKLEIKR
For B13, the “Potency (pM)” value (human IL-17A [6]) was 137 pM.
